Results from patent publication US7176277 (BURNHAM INSTITUTE, dated 2007).

Experiments:
[1] = biological target: T1, Bcl-2 (UniProt P10415 1-239); test: Co-IP (result restated in Example 8)
T1 construct: The residue numbers used for the mutants (Tyr108, Leu137, Gly145, Arg146, TM 205-239) fit human Bcl-2 alpha; also called full-length Bcl-2; ^35S-labeled Bcl-2
Protocol: (§1) The cells were harvested and reporter gene activity was measured. […] Cells were suspended in lysis buffer (50 mM Tris-HCl, PH7.4; 150 mM NaCl; 20 mM EDTA; 1% NP-40; 1 mM PMSF; 50 μg/ml Leupeptin; 20 mg/ml Aprotinin; 0.1 mM Na_3VO_4; and 1 mM DTT). Cells extracts were cleared by incubation with the Protein A/G plus Agarose beads (Santa Cruz) and then incubated with appropriate antibody and 30 μl of Protein A or G plus Agarose beads overnight at 4° C. […] Immunoreactive products were detected by chemiluminescence with an enhanced chemiluminescence system (ECL) (Amersham).
A Co-IP assay was performed, as described above.

[2] = biological target: T2, GFP-TR3/ΔDBD (human, UniProt P22736 1-598); test: Co-IP
T2 construct: also called GFP-ΔDBD
Protocol: as §1

Row | binding result [1] | binding result [2] | Binder
1 | no binding |  | TR3/ΔDBD/ΔDC1 (other, not shown: large carriers; small tags and cut ends, also called TR3/ΔDBD/DC1; GFP fusion) MPCIQAQYGTPAPSPGPRDHLASDPLTPEFIKPTMDLASPEAAPAAPTALPSFSTFMDGYTGEFDTFLYQLPGTVQPCSSASSSASSTSSSSATSPASASFKFEDFQVYGCYPGPLSGPVDEALSSSGSDYYGSPCSAPSPSTPSFQPPQLSPWDGSFGHFSPSQTYEHVAAVAGEPQPASCLSRLLGKLPELRTLCTQGLQRIFYLKLEDLVPPPPIIDKIFMDTLPF
2 |  | no binding | Bcl-2/ΔLoop (other, UniProt P10415 1-239, looked up, also called Bcl-2 lacking the loop region) MAHAGRTGYDNREIVMKYIHYKLSQRGYEWDAAGPALSPVPPVVHLTLRQAGDDFSRRYRRDFAEMSSQLHLTPFTARGRFATVVEELFRDGVNWGRIVAFFEFGGVMCVESVNREMSPLVDNIALWMTEYLNRHLHTWIQDNGGWDAFVELYGPSMRPLFDFSWLSLKTLLSLALVGACITLGAYLGHK
